A short description of the series: soluble on expression in E. coli; label from the status in PepcDB or PDB records.
For the sequence “MGSDKIHHHHHHMSEGCAFAYPFIFVGANMKKIAFIGECMIELNGKPFGEMWQSYGGDTLNSATYLSRMSSPNDIQVYYVSALGSDNLSEQMRMHWQADGVNTDWVLKDENHQPGLYLIQLDEQGERTFLYWRNQSAAHYMVQHHDFSQVLSALEQVDMIYLSGISLAILPKNDRTFLLEQLIKLAKKGVQISFDSNFRPKLWDSFQEAQDCYLQLLPCVSLALVTFDDEQLLWNDTNEPATLTRLHQIGIPKVVVKCGRNGAIFSDSQTSQYGQVVPKPISNVVDTTSAGDSFNAGFLNGYLRNKPLDICCRQGNYVAGIVIQHKGAIIDKHATSHLQSEFN”, the “soluble on expression in E. coli” value is on record as “not soluble”.
For “MMYQDVVRSRRSVRDFMPDVEIPKEELMAIIEEAMFAPNSTNLNSWRFLIVTEKEQKEALYEVSMQQPAVKGAAAVIILLGDLTAYTVANADEISAKAVAQGTMTEEIRQGINENVSWYYDVSEEQKREWLMLDQGLVAMQLMLSAKDRGYDTVAMSGFETEAVRKLFNIEDHLVNGLIIPIGKAQTPGFETVRRDVSEVVTWLD”, the “soluble on expression in E. coli” value is listed as “not soluble”.
For “MKELKQAEQIRTWVQSILTDESSGHDWHHVSRVADLAAYIGEKEKADLFIVETAALVHDLIDVKLPDTVRLSVSEVYDQLVFFGVGKENADRVIHIITRMSFRDRGKLAKEPLSIEGKAVQDADRLDAIGAVGIARAFMFAGAKGHGLYGDEQSAYAHFFHKLLRLKDMMNTDTARELAEERHNFMLQFVRQLEKDIPGIDAETSLEHHHHHH”, the “soluble on expression in E. coli” value is listed as “soluble”.
For “MFNKVIMVGRLTRNVELKYLPSGSAAATIGLATSRRFKKQDGTLGEEVCFIDARLFGRTAEIANQYLSKGSSVLIEGRLTYESWMDQTGKKNSRHTITADSLQFMDKKSDNPQANAMQDSIMHENSNNAYPANH”, the “soluble on expression in E. coli” value is given as “soluble”.
With “MIIATAGHVDHGKTTLLQAITGVNADRLPEEKKRGMTIDLGYAYWPQPDGRVLGFIDVPGHEKFLSNMLAGVGGIDHALLVVACDDGVMAQTREHLQILQLTGNLQLTVALTKADRVDEARIGEVREEVLAALDNYGFADTVLFVTAANEGRGIAELRAHLQQLPARSHAAQHRFRLAIDRAFTVKGAGLVVTGTALSGEVNVGDTLWLTGVNTPMRVRSLHAQNQPTDHAYAGQRIALNIAGDAEKEQLNRGDWLLSDAPVGEAFSRVIVSLALHAPLSQWQPLHIHHAASHVTGRVSLLEGGLAELIFDTPLWLADNDRLVLRDISARATLAGARVVTLKAPRRGKRKPDYLHWLSTLAAAQDDSAALAIHLERGAVNLPDFGWARQLNPLGMRQLIEQHGFIQAGDNLLSAPVAARWQRKILDTLATYHEQHRDEPGPGRERLRRMALPMEDEALVLMLIERMRDDGLIHSHHGWLHLPDHKAGFSDEQQAVWQKVEPLFGDEPWWVRDLAKETGTEEQLMRLVLRQAAQQGIITAIVKDRYYRNDRIVAFANMIRELDQERGSTCAADFRDRLNVGRKLAIQILEYFDRIGFTRRRGNDHLLRDALLFPQKE” the entry was “not soluble”; with “MGSDKIHHHHHHMRLIGLTDLHNRIINFDKLLRYKPDAILISGDFTKCSFAKSANQNDSFEVITEQDTRIIDFLENLNNKIKVFIIPGNWENLDTIQKMNESGLNIDEKLVKFHDTIFIGLGGSNKTPICSPNEYSEDEIYERFIKILKNEKTDVKNNFILLSHVPPKDTMADRCEAGHVGSSAVRKIIEEFKPVLCACGHVHESRSIDKIGNTLIVNPSSTGFFIYDTKTKNLEIHDL”, “not soluble”; with “KRAPDGRVLDIAGTEHSLHDLTRGKISLVSFVYLTCGDVNGCPLAMSVFFDVHDASGDLPGLNEDVQLLTISFDPARDTVEAIEAFAYPITSDEQAGDKLNWQVLTTSGPQELRPILDGYGQVVDRSEDQETISHLLRLFLVDRQGDIRNVYGLGFLDPRLLLTDIETLLMEEAGA”, “soluble”.
With “VEQSANAFLLVNCNGVVEYVNPSFTAITQYSSEEVSGNKLSELPALENLNQLLLEANSSLTSSNSWQGEFKSRRKNLEPYWGQLSISKVYGDNRELTHYIGIYEDIT” the entry was “not soluble”.
Then “MRGVTPINPQKKIEADSNPVKESDYYEGERLTHLLDLIQRGIETSKLSNVNSLPEKIWLKKQIAIGINEVTRVLERMNPNNTSDQQQNPKQLQVVILVADCKPRMLTKHIPNLAASRNVPVLYVRDNKRASLRLGELVKLKTALAIGIKARGNDLNLLLKQILPRDS”, with “soluble”.
“GMELPVVVQQALGDNAPGVSFRSVSQIDTGHLLRMVLLSDDQGNLQAICRRNDMLDLEALNKRLGRDLRMMQRREQVRVRQKAGLQELPALPSLTGWPTVVDRRVDELEAVALELGEQDLGLMMPAEDFRQLTAKAARHDFAVDTANISVNLDNHAADRDQLHSAIKRFTGLRIQQRLEDTLELPPLPETAQRIIHLRVNPNAVMGDLVDVVESDPSLAAQVVSWASSSFYAAAGRVHSVHDAVSRVLGFDLVMNLAMGLALGRALKHPQDHPDGYVDYWQQAIWQAQSAGILASMMPRGQRPLFGLAYLAGLLHNFGHLVLAQVFPPHFKLVCRSLEVSPHIDSSVIEHYLLGITREQIAAQLMENWGMPDEVTLAIRYQKNPAYDGPHNVYARLLWLGRQLLTERGVALGAGESATQAVYDELGLDRELVQEQFDELVRRKDSIMAMAGMMSQGG”: the “soluble on expression in E. coli” value is “soluble”.
Then “MAHHHHHHSAALEVLFQGPGMAETKLQLFVKASEDGESVGHCPSCQRLFMVLLLKGVPFTLTTVDTRRSPDVLKDFAPGSQLPILLYDSDAKTDTLQIEDFLEETLGPPDFPSLAPRYRESNTAGNDVFHKFSAFIKNPVPAQDEALYQQLLRALARLDSYLRAPLEHELAGEPQLRESRRRFLDGDRLTLADCSLLPKLHIVDTVCAHFRQAPIPAELRGVRRYLDSAMQEKEFKYTCPHSAEILAAYR”, with “soluble”.
With “MYAVTFDLDTNCLNENAVNLSKVYSDIRKFMEQHGFKWQQGSVYFGDETINAVTCVATVQILAKQIPSFAVCVKDVRMLKIEENNDLMPAIKIVL” the entry was “not soluble”; with “MRGEAGELAVSSGEIATGALSPEKQQEQELMGKLAATGKLPARPASSFLQKKLQQRKFFDSGDYAMDKSKAGTGLGSKPHPLAGGPPPAAPPVVAQRSPAPAATTPSPSASPISQQTNRPSSDRNSDDDNLQIPRPDTVPQRKASIINPSVHCKLSPAPHVQHHDAASPNATSE”, “soluble”; with “PPGTVDKKMVEKCWKLMDKVVRLCQNPKLALKNSPPYILDLLPDTYQHLRTILSRYEGKMETLGENEYFRVFMENLMKKTKQTISLFKEGKERMYEENSQPRRNLTKLSLIFSHMLAELKGIFPSGLFQGDTFRITKADAAEFWRKAFGEKTIVPWKSFRQALHEVHPISSGLEAMALKSTIDLTCNDYISVFEFDIFTRLFQPWSSLLRNWNSLAVTHPGYMAFLTYDEVKARLQKFIHKPGSYIFRLSCTRLGQWAIGYVTADGNILQTIPHNKPLFQALIDGFREGFYLFPDGRNQNPDLTGLCEPTPQDHIKVTQEQYELYCEMGSTFQLCKICAENDKDVKIEPCGHLMCTSCLTSWQESEGQGCPFCRCEIKGTEPIVVDPF”, “soluble”.
With “MQIEKIRDQKMKAVRVKKLSKLADEITINISGAKNALLHLIFASLIPDTKTKFTNVPITLLDYKGAKEILENVGAKVIEKDEEVTIDTAAISNETLELCGEMTSKTRCSLMLLGSLLKKKGRVKIGFPGGCSFSEKRPFDIHLNGLEALGAEVKLADDHIEVIYKEEKNAEFKMPFPSVGATMNLLMYAVTGNSEIVLENVALEPEVVTLIDYLNQCGANIDFDADSRKIKILGIMRLNGCEFEIIFDRIQAMTYAAMAYLYKTNVTITNINTQDTYSIKKPLEKLTNAGAKWEYNQANRSIKFFGKDSCIKGVDIIAAPFPHFPTDLQPIYAVMLFMANSSSTIQDTVYPERINYVYQIRKMGFNISIDNTLIKINPLKNLNDIRPAVMSVKDLRAGMACLMAGSLLDEFSTINNAHQIFRGYNNLIENMSHFMRIEILNDNV” the entry was “not soluble”.
For the sequence “MKQPGEELQETLTELDDRAVVDYLIKNPEFFIRNARAVEAIRVPHPVRGTVSLVEWHMARARNHIHVLEENMALLMEQAIANEGLFYRLLYLQRSLTAASSLDDMLMRFHRWARDLGLAGASLRLFPDRWRLGAPSNHTHLALSRQSFEPLRIQRLGQEQHYLGPLNGPELLVVLPEAKAVGSVAMSMLGSDADLGVVLFTSRDASHYQQGQGTQLLHEIALMLPELLERWIERV”, the “soluble on expression in E. coli” value was “not soluble”.
With “MGSDKIHHHHHHMEAYQFIKDYKAHDPYRKSFIQLAKRIFNIDFAPWYEQGFWNDNYICYSYVDKHEVIANVSVNKMELIINGAKQEAIQIGTVMTAPEYRRQGLAKQLLQKALDDYDSAYDLYFLAANQEAIPLYETCGFQLIEENCYEIDMAGYTLLDKPLRRADVSPEAMVEVKKGSCPLSTVLSAQGDEHILMFYYTAGFRDFIYQVNKDVHVMFQLEGDVLHLYDIFSPAKVNVEQLVEQIAPLATKTVVCHFTPDHSVKQLTAKIDSTSSWMVRTTTKGFPPLARFPKISQA” the entry was “not soluble”; with “MAQFSIFPEQNSLQDLLNIHSVQEDTQYKSMGIYDLKTCEIPMRPPTHQNPAQKEHNTMEDEMMAVLNSFSRRIEIMSAPEPKAFRYYFEISPPPKPEAPKSQLGLGDLSEESYPLTPEPIQLDTCLTWSPVELQFDPFAEPEPIFYNEEMDSGPTPEPIPDIFESPRSEVEAVKMFRSEVIYEDFAEE”, “not soluble”.
With “AHHHHHHGSVERSKVRVLIAKPGLDGHDRGAKVVARALRDAGYEVIYTGIRQTPEQIVEAVIEEDVDVLGISILSGAHMVLIPKILKLLEEKGIKPGEDILVVAGGIIPPDDAEELKKMGVAEVFGPGTPLKTIIEFIDKNVEKLKKFRSST” the entry was “soluble”; with “TGPQGPPGPAGPKGAKGETGPQGPPGPAGPKGAKGDSGVPLSYEFTQKVESSNGTAVFGLLSNGFVEVRITGSYSSDVFNIPYNYRPLKAGTQMALFSTSGVGVAKVGEDKITIQGYSRNAQCSGTVLYPHREF”, “not soluble”; with “MSLGATNRLACYSDPADHYSHRVRLVLAEKGVSVQLIDVDPAHLPRKLAEVNPYGSVPTLVDRDLALYESTVVMEYLEERYPHPPLMPVYPVARGNSRLLMHRIQRDWCALADTVLDPRSSEAARTEARKALRESLTGVSPLFSEFACFMSDEQSLVDCCLLPILWRLPVLGIELPRQAKPLLDYMERQFAREPFQASLSSVEREMRKLEGHHHHHH”, “soluble”.
With “MSTFRLALIQLQVSSIKSDNLTRACSLVREAAKQGANIVSLPECFNSPYGTTYFPDYAEKIPGESTQKLSEVAKESSIYLIGGSIPEEDAGKLYNTCSVFGPDGSLLVKHRKIHLFDIDVPGKITFQESKTLSPGDSFSTFDTPYCKVGLGICYDMRFAELAQIYAQRGCQLLVYPGAFNLTTGPAHWELLQRARAVDNQVYVATASPARDDKASYVAWGHSTVVDPWGQVLTKAGTEETILYSDIDLKKLAEIRQQIPILKQKRADLYTVESKKP” the entry was “soluble”; with “MNNSNLAAARNLIQVVTGEWKSRCVYVATRLGLADLIESGIDSDETLAAAVGSDAERIHRLMRLLVAFEIFQGDTRDGYANTPTSHLLRDVEGSFRDMVLFYGEEFHAAWTPACEALLSGTPGFELAFGEDFYSYLKRCPDAGRRFLLAMKASNLAFHEIPRLLDFRGRSFVDVGGGSGELTKAILQAEPSARGVMLDREGSLGVARDNLSSLLAGERVSLVGGDMLQEVPSNGDIYLLSRIIGDLDEAASLRLLGNCREAMAGDGRVVVIERTISASEPSPMSVLWDVHLFMACAGRHRTTEEVVDLLGRGGFAVERIVDLPMETRMIVAARA”, “soluble”.

The values above are taken from the DeepSol protein solubility set.
